Test results as given in patent US20140024592A1, “Modified Relaxin Polypeptides” (Howard Florey Institute of Experimental Physiology and …, priority 2010, published 2014).
No end group written: not given here.

T1: RXFP3 (Homo sapiens, UniProt Q9NSD7)
T1 construct: expressed in transfected cells; host or cells: CHO-K1
T1 sequence (Q9NSD7 1-469): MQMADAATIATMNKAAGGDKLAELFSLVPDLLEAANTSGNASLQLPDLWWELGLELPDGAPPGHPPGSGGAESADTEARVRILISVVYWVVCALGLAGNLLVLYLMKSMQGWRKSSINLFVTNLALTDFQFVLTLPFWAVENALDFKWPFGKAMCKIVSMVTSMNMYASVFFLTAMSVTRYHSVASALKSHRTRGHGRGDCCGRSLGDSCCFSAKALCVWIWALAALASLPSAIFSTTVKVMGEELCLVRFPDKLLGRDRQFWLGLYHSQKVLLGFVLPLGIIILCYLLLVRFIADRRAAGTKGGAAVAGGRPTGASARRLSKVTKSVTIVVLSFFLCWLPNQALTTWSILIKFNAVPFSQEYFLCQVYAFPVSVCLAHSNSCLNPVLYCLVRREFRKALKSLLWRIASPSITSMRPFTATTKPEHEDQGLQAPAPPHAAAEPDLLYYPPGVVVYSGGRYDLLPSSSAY

T2: RXFP1 receptor (UniProt Q9HBX9 1-757, limits assumed)
T2 sequence (looked up): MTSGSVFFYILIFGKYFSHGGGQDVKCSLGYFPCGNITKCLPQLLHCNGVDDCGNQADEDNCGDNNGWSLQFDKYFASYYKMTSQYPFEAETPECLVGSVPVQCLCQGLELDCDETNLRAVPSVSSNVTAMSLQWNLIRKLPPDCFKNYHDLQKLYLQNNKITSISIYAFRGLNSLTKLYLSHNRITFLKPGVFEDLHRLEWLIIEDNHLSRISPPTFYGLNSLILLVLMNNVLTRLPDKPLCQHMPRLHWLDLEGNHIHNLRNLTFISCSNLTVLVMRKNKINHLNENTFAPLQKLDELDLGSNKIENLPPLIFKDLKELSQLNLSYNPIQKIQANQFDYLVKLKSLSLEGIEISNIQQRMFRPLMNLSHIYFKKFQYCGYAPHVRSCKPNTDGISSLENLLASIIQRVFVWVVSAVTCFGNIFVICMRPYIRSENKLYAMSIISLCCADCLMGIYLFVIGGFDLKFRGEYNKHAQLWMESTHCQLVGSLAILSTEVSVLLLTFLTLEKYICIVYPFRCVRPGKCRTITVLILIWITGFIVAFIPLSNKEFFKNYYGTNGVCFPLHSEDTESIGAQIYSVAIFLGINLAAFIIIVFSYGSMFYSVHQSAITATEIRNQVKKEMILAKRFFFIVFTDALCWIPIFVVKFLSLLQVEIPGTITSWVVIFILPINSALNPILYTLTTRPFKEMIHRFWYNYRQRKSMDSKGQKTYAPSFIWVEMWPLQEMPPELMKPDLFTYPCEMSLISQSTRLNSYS

T3: RXFP3 receptor (UniProt Q9NSD7 1-469, limits assumed)
T3 construct: whole, on cells; also called GPCR135
T3 sequence (looked up): T1 sequence (Q9NSD7 1-469)

B1: analogue 17 (peptide)
chain 1: CKWGASKSEISSLC
chain 2: GVRLCGREFIRAVIFTCGGSRW
notes: Synthetic
B2: analogue 18 (peptide)
chain 1: CKWGASKSEISSLC
chain 2: RLCGREFIRAVIFTCGGSRW
notes: Synthetic
B3: analogue 19 (peptide)
chain 1: CKWGASKSEISSLC
chain 2: CGREFIRAVIFTCGGSRW
notes: Synthetic
B4: native human relaxin-3 (H3 relaxin) (ligand)
chain 1: DVLAGLSSSCCKWGCSKSEISSLC
chain 2: RAAPYGVRLCGREFIRAVIFTCGGSRW
modifications: disulfide (positions not given here); also: one intra-A-chain and two inter-chain disulphide bonds, places not given here
notes: Two-chain peptide; one intra-A-chain and two inter-chain disulphide bonds; also called native relaxin-3
B5: analogue 14 (peptide)
chain 1: DVLAGLSSSACKWGASKSEISSLC
chain 2: RAAPYGVRLCGREFIRAVIFTCGGSRW
modifications: disulfide (positions not given here)
notes: Synthetic; no intra-A-chain disulphide, two inter-chain disulphides kept
B6: analogue 15 (peptide)
chain 1: CKWGASKSEISSLC
chain 2: RAAPYGVRLCGREFIRAVIFTCGGSRW
modifications: disulfide (positions not given here)
notes: Synthetic; two inter-chain disulphides, no intra-A-chain disulphide; also called [R3A(11-24,C15→A)B]; RXFP3-selective agonist, analogue 2
B7: human INSL5 (ligand)
chain 1: QDLQTLCCTDGCSMTDLSALC
chain 2: KESVRLCGLEYIRTVIYICASSRW
notes: mature; Native receptor ligand used as comparator at RXFP4; also called hINSL5; native INSL5

Assays:
[1] = target: T1, RXFP3; experiment: Inhibition of forskolin-induced cAMP accumulation in RXFP3 expressing CHO-K1 cells (cAMP reporter gene assay); type: cell-based; settings: CHO-K1, read-out: forskolin-induced cAMP production inhibited to
Method: CHO-K1 cells were subcultured in clear 96 well plates (10,000 cells/well/200 μl media) and after 24 h, they were co-transfected with pCRE-8-galactosidase reporter plasmid. 24 hours later, cells were treated with 5 μM forskolin together with increasing concentration of relaxin-3 polypeptides. […] The stimulation was carried out for 6 h after which the media was aspirated and the cells were frozen at −80° C. overnight. The cells were thawed to room temperature and the amount of cAMP-induced β-galactosidase expression was measured by adding 25 μl of 0.1× buffer A (100 mM Na2HPO4 (pH 8.0), 2 mM MgSO4, 0.1 mM MnCl2) and shaking at room temperature for 10 minutes to hypotonically lyse the cells. Then 100 μl of buffer B (similar to buffer A with additional 0.5% Triton X-100 and 40 mM β-mercaptoethanol) was added to each well with shaking for 10 minutes at room temperature. Finally, 25 μl of substrate for 6-galactosidase (chlorophenol red β-D galactopyranoside) was added to each well with shaking until the colour change was observed. The absorbance was measured at 570 nm on Victor^3 plate reader (PerkinElmer, Glen Waverly, VIC). The data were analysed using GraphPad PRISM 4 (GraphPad Inc., San Diego, USA). […] Statistical analysis was carried out using one-way ANOVA with Bonferroni's multiple comparison test.

[2] = target: T2, RXFP1 receptor; experiment: cell-based or functional assay
[3] = tested on: human dermal fibroblasts (BJ3 cells) which express RXFP1; experiment: TGF-β1-induced collagen expression in human dermal fibroblasts (hydroxyproline content); type: cell-based; settings: TGF-β1 2 ng/mL plus peptide 100 ng/mL, 72 hr
Method: The deposited collagen into the cell layer was hydrolysed and analysed for hydroxyproline content, as previously described (Samuel et al., 1996, Endocrinology 137:3884-3890). Hydroxyproline values were then converted to total collagen content by multiplying by a factor of 6.94 (based on hydroxyproline representing approximately 14.4% of the amino acid composition of collagen in most mammalian tissues). These experiments were performed 3-4 separate times in duplicate.

[4] = target: T2, RXFP1 receptor; experiment: competition with Eu-labelled H2 relaxin on HEK-293T cells expressing RXFP1
[5] = target: T4, RXFP4 receptor (UniProt Q8TDU9 1-374, limits assumed); experiment: cell-based or functional assay
[6] = target: T3, RXFP3 receptor; experiment: competition with 0.5 nM Eu-labelled INSL5A/H3 relaxinB on CHO-K1 cells expressing RXFP3
[7] = target: T3, RXFP3 receptor; experiment: cell-based or functional assay
[8] = target: T3, RXFP3 receptor; experiment: cell-based or functional assay; remark: listed apart in the source
[9] = target: T4, RXFP4 receptor; experiment: competition with 2.5 nM Eu-labelled mouse INSL5 on CHO-K1 cells expressing RXFP4

T4 sequence (Q8TDU9 whole entry): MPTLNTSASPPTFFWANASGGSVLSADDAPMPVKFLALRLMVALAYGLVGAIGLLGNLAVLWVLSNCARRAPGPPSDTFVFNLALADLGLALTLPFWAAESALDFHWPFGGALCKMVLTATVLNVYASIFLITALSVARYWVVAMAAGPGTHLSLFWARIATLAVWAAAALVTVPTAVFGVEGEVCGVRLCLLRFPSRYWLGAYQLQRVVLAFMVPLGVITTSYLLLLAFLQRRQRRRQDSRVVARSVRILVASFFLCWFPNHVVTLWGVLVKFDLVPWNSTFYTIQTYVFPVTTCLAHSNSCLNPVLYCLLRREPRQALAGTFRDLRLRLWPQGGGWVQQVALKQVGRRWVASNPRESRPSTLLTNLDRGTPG

Molecule | binding result [4] | pEC50 (M), activation of RXFP4 [5] | further results
CC[C@H](C)[C@@H]1NC(=O)[C@H](Cc2ccccc2)NC(=O)[C@H](CCC(=O)O)NC(=O)[C@H](CCCNC(=N)N)NC(=O)CNC(=O)[C@@H](NC(=O)[C@H](CC(C)C)NC(=O)[C@H](CCCNC(=N)N)NC(=O)[C@@H](NC(=O)CNC(=O)[C@H](Cc2ccc(O)cc2)NC(=O)[C@@H]2CCCN2C(=O)[C@H](C)NC(=O)[C@H](C)NC(=O)[C@@H](N)CCCNC(=N)N)C(C)C)CSSC[C@@H]2NC(=O)[C@@H](NC(=O)[C@H](CO)NC(=O)[C@H](CO)NC(=O)[C@H](CO)NC(=O)[C@H](CC(C)C)NC(=O)CNC(=O)[C@H](C)NC(=O)[C@H](CC(C)C)NC(=O)[C@@H](NC(=O)[C@@H](N)CC(=O)O)C(C)C)CSSC[C@H](NC(=O)CNC(=O)[C@H](Cc3c[nH]c4ccccc34)NC(=O)[C@H](CCCCN)NC2=O)C(=O)N[C@@H](CO)C(=O)N[C@@H](CCCCN)C(=O)N[C@@H](CO)C(=O)N[C@@H](CCC(=O)O)C(=O)N[C@@H]([C@@H](C)CC)C(=O)N[C@@H](CO)C(=O)N[C@@H](CO)C(=O)N[C@@H](CC(C)C)C(=O)N[C@H](C(=O)O)CSSC[C@@H](C(=O)NCC(=O)NCC(=O)N[C@@H](CO)C(=O)N[C@@H](CCCNC(=N)N)C(=O)N[C@@H](Cc2c[nH]c3ccccc23)C(=O)O)NC(=O)[C@H]([C@@H](C)O)NC(=O)[C@H](Cc2ccccc2)NC(=O)[C@H]([C@@H](C)CC)NC(=O)[C@H](C(C)C)NC(=O)[C@H](C)NC(=O)[C@H](CCCNC(=N)N)NC1=O [H3 relaxin] | – | – | activity at 0.01 µM [1]: ~50%
H2 relaxin (from UniProt P04090 162-185; P04090 25-53) (ligand) | – | – | inhibition of TGF-β1-induced collagen in human dermal fibroblasts (BJ3 cells) [2]: 35%
H2 relaxin: native human relaxin-2, cognate ligand of RXFP1 (chain 1 QLYSALANKCCHVGCTKRSLARFC; chain 2 DSWMEEVIKLCGRELVRAQIAICGMSTWS) | – | – | inhibition of TGF-β1 induced collagen compared to TGF-β1 alone [3]: 35%
B1 | no binding (tested: <5 (pIC50/pKi, M)) | 7.85 M (as -log10) | –
B2 | no binding (tested: <5 (pIC50/pKi, M)) | 8.1 M (as -log10) | –
B3 | no binding (tested: <5 (pIC50/pKi, M)) | 8.46 M (as -log10) | –
B4 | – | 8.94 M (as -log10) | pEC50 (M), cAMP accumulation in HEK-293 cells expressing RXFP1 [2]: 8.74 M (as -log10)
B5 | – | – | pKi [6]: 7.3 M (as -log10); pEC50 (M), cAMP accumulation in HEK-293 cells expressing RXFP1 [2]: 6.23 M (as -log10); pEC50 (M), inhibition of forskolin-induced cAMP, reporter gene assay in CHO-K1 cells expressing RXFP3 [7]: 7.9 M (as -log10)
B6 | no binding (tested: <5 (pIC50/pKi, M)) | 7.7 M (as -log10) | pEC50, ERK1/2 phosphorylation in stable CHO-RXFP3 cells (AlphaScreen) [8]: 10.4 -log10 (M not printed); pIC50 [9]: 7.1 M (as -log10)
B7 | – | 8.51 M (as -log10) | pIC50 [9]: 7.33 M (as -log10)
